Assay [1] concerns the target T1, Trimeric SARS-CoV-2 S-protein (SARS-CoV-2 (P0DTC2 reference)); strain …, UniProt P0DTC2, biotin (site-specific, BirA, on the AviTag)). In words: BLI. (Biolayer interferometry detects binding as a change in optical thickness at a sensor tip.)
Assay [2] has as its target T1, Trimeric SARS-CoV-2 S-protein. Briefly: ELISA. Background: In an ELISA, binding on a coated surface is turned into a signal by an enzyme label.

B1: IgG 15046 (antibody, V domains shown)
VH: EVQLVESGGGLVQPGGSLRLSCAASGFDFGSYAMHWVRQAPGKGLEWVAGIYASGGYTDYADSVKGRFTISADTSKNTAYLQMNSLRAEDTAVYYCARGWSYYWGFDYWGQGTLVTVSS
VL: DIQMTQSPSSLSASVGDRVTITCRASQSVSSAVAWYQQKPGKAPKLLIYSASSLYSGVPSRFSGSRSGTDFTLTISSLQPEDFATYYCQQYDYGLFTFGQGTKVEIK
As a reminder, the Kd is the free concentration of one partner at which half of the binding sites on the other are occupied at equilibrium, for simple one-to-one binding. A low value points to a tighter complex. What is called EC50 is the concentration giving half of the maximal effect. Low values mean an effect from little substance, high ones a need for much substance. In turn, B1 displayed a dissociation constant (Kd) in assay [1] of 2.3 ± 0.6 nM. Besides, the EC50 in assay [2] stood at 1.3 ± 0.3 nM.

B2: IgG 15036 (antibody, V domains shown)
VH: EVQLVESGGGLVQPGGSLRLSCAASGFDFTAYDIHWVRQAPGKGLEWVAGISASGGYTAYADSVKGRFTISADTSKNTAYLQMNSLRAEDTAVYYCARDGFHSYALDYWGQGTLVTVSS
VL: DIQMTQSPSSLSASVGDRVTITCRASQSVSSAVAWYQQKPGKAPKLLIYSASSLYSGVPSRFSGSRSGTDFTLTISSLQPEDFATYYCQQWYSLFTFGQGTKVEIK
For B2, the Kd in assay [1] was 0.1 ± 0.1 nM. This molecule had an EC50 in assay [2] of 0.5 ± 0.1 nM.

Values taken from paper PMC8028696 (Journal of Molecular Biology, 2021).
